Data as given in paper PMC9891525.

Molecular target: SARS-CoV-2 Delta variant S1 protein (SARS-CoV-2)
Assay: SPR

Question: How did the Kd turn out when original monoclonal antibody REGN10987 was run?
Answer: The Kd was 0.9 nM.
